Columns and labels:
[1] = target: T1, yeast PCNA, N-terminally His-tagged Pol30 (S. cerevisiae, UniProt P15873 1-258); assay: pull-down
T1 sequence: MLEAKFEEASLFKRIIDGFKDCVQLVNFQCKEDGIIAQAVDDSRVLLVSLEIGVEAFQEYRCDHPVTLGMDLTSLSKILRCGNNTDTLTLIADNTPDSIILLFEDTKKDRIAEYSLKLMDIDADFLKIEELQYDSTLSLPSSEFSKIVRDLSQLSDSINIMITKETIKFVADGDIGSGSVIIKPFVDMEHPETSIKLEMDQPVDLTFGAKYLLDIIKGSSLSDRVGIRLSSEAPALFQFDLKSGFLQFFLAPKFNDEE

[2] = target: chicken N-terminally His-tagged PCNA (recombinant) (chicken, UniProt Q9DEA3 1-262); assay: pull-down
Sequence of chicken N-terminally His-tagged PCNA (recombinant) (Q9DEA3 whole entry): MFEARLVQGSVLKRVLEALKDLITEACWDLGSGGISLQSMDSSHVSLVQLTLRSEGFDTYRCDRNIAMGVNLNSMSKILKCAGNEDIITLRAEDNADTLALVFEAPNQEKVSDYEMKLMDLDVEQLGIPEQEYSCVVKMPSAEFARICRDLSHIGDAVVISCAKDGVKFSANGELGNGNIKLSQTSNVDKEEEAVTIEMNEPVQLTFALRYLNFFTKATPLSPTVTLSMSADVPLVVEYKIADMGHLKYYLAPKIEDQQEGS

| Binder | binding result [1] | binding result [2] |
| --- | --- | --- |
| YSSNGKLLTYFRKHVKDT (domain or fragment) [GSTscc2PIP (GST fused with the last 18 amino acids of yeast Scc2, aa 1476-1493, wild-type PIP)] | binds |  |
| TNKVVATARSLAAAKDGTSS [GST-NIPBL-pip2 (chicken NIPBL aa 2764-2783 with Q2769A,L2771A,Y2775A, fused to GST)] |  | binds |
| TNKVVQTLRSLYAAKDGTSS [GST-NIPBL-PIP2 (chicken NIPBL aa 2764-2783 fused to GST)] |  | binds |
| GST-NIPBL WT (C-terminus of chicken NIPBL, aa 2582-2783, fused to GST) (domain or fragment) ANSKITEEVKRSIVKQYLDFKLLMEHLDPDEEEEDGEVSASTNARNKAITSLLGGGSPKNNAAETEDDESDGEDRGGGTSGSLRRSKRNSDSTELASQMNESVDVMDVIAICCPKYKDRPQIARVVQKTSNGFSVQWMAGSYSGSWTEAKRRDGRKLVPWVDTIKESDIIYKKIALTSANKLTNKVVQTLRSLYAAKDGTSS |  | binds |
| GST-NIPBL pip1 (chicken NIPBL aa 2582-2783 with PIP1 mutated Q2597A,L2599A,F2601A, fused to GST) (domain or fragment) ANSKITEEVKRSIVKAYADAKLLMEHLDPDEEEEDGEVSASTNARNKAITSLLGGGSPKNNAAETEDDESDGEDRGGGTSGSLRRSKRNSDSTELASQMNESVDVMDVIAICCPKYKDRPQIARVVQKTSNGFSVQWMAGSYSGSWTEAKRRDGRKLVPWVDTIKESDIIYKKIALTSANKLTNKVVQTLRSLYAAKDGTSS |  | binds |

Reference: doi:10.1101/2022.09.16.508217 (bioRxiv, 2022)
